Results on two proteins are retold here after publication PMC3878821.

What is called Km is the concentration of substrate that gives half-maximal velocity.

Positions count from the first letter of the chain named. Numbers in names are those of the source.

Substrate in the data set: Nc1ncnc2c1ncn2[C@@H]1O[C@H](COP(=O)(O)OP(=O)(O)OP(=O)(O)O)[C@@H](O)[C@H]1O
The data set is described as follows: in vitro enzymatic assay, Km app for ATP. The following applies: ATP-binding site. Type of data set: biochemical, Homo sapiens.

B1: ROS1 kinase domain G2032R mutant (Homo sapiens; G2032R) (protein)
chain: IENLPAFPREKLTLRLLLGSGAFGEVYEGTAVDILGVGSGEIKVAVKTLKKGSTDQEKIEFLKEAHLMSKFNHPNILKQLGVCLLNEPQYIILELMEGRDLLTYLRKARMATFYGPLLTLVDLVDLCVDISKGCVYLERMHFIHRDLAARNCLVSVKDYTSPRIVKIGDFGLARDIYKNDYYRKRGEGLLPVRWMAPESLMDGIFTTQSDVWSFGILIWEILTLGHQPYPAHSNLDVLNYVQTGGRLEPPRNCPDDLWNLMTQCWAQEPDQRPTFHRIQDQLQLFRNFFLNSIYKSRDE
For the protein B1, the Km stood at 22 µM.

B2: ROS1 kinase domain (nonmutant) (Homo sapiens) (protein)
chain: B1 chain with R99G
As for B2, the Km was determined as 65 µM.
